Values quoted from earlier work as cited in patent US10927175B2, “Method for treating cancer” (Sun Jet Biotechnology Inc., priority 2017, dated 2021).

Test system: metastatic duodenal adenocarcinoma
Details: gradually decreasing prednisolone and replacing tacrolimus with sirolimus after nivolumab

For nivolumab, the allograft outcome is given as “preserved” and the tumor outcome is given as “regressed”.
